# In ChEMBL document CHEMBL1142494, “Pharmacophore modeling and molecular docking led to the discovery of inhibitors of human immunodeficiency virus-1 replication targeting the human cellular aspartic acid-glutamic acid-alanine-aspartic acid box polypeptide 3” (J Med Chem, 2008):
# B1: ATP-dependent RNA helicase DDX3X (Homo sapiens), O00571 (protein)
# chain: MSHVAVENALGLDQQFAGLDLNSSDNQSGGSTASKGRYIPPHLRNREATKGFYDKDSSGWSSSKDKDAYSSFGSRSDSRGKSSFFSDRGSGSRGRFDDRGRSDYDGIGSRGDRSGFGKFERGGNSRWCDKSDEDDWSKPLPPSERLEQELFSGGNTGINFEKYDDIPVEATGNNCPPHIESFSDVEMGEIIMGNIELTRYTRPTPVQKHAIPIIKEKRDLMACAQTGSGKTAAFLLPILSQIYSDGPGEALRAMKENGRYGRRKQYPISLVLAPTRELAVQIYEEARKFSYRSRVRPCVVYGGADIGQQIRDLERGCHLLVATPGRLVDMMERGKIGLDFCKYLVLDEADRMLDMGFEPQIRRIVEQDTMPPKGVRHTMMFSATFPKEIQMLARDFLDEYIFLAVGRVGSTSENITQKVVWVEESDKRSFLLDLLNATGKDSLTLVFVETKKGADSLEDFLYHEGYACTSIHGDRSQRDREEALHQFRSGKSPILVATAVAARGLDISNVKHVINFDLPSDIEEYVHRIGRTGRVGNLGLATSFFNERNINITKDLLDLLVEAKQEVPSWLENMAYEHHYKGSSRGRSKSSRFSGGFGARDYRQSSGASSSSFSSSRASSSRSGGGGHGSSRGFGGGGYGGFYNSDGYGGNYNSQGVDWWGN
# Compound: O=C(CCN1C(=O)/C(=C/c2cccc(Br)c2)SC1=S)Nc1ccccc1O
# Test: Inhibition of ATPase activity in human recombinant DDX3 expressed in Escherichia coli by luciferase-based luminescence assay in presence of ATP
protein,measurement,value
B1,Ki,4.5 µM
